Experimental data as given in patent US20200199241A1 (Chugai, published 2020).
Numbering of substitutions follows the chain as printed. Numbers in names are those of the source.

How the values were obtained:
[1] = biological target: T1, human FcRn (soluble human FcRn complexed with β2-microglobulin) (human, UniProt P61769 21-119, limits assumed); assay: SPR, antibody captured by Protein L, human FcRn as analyte, pH 7.0, 25 C
T1 construct: also called hFcRn

[2] = biological target: T2, human FcγRIIa(R) (human, UniProt P12318 36-217); assay: SPR, antibody captured by Protein L, human FcγR as analyte, pH 7.4, 25 C
T2 construct: also called hFcgRIIa(R); FcγRIIa type R
T2 chain: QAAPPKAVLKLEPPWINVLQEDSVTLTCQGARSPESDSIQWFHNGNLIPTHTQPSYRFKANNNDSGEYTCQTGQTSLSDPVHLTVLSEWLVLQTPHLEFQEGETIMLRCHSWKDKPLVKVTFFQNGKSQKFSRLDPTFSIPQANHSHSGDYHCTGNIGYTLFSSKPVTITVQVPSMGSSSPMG

[3] = biological target: T3, human FcγRIa (human, UniProt P12314 16-292, limits assumed); assay: as above
T3 construct: also called hFcgRIa; hFcgRI

[4] = biological target: T4, human FcγRIIb (human, UniProt P31994 43-217, limits assumed); assay: as above
T4 construct: also called hFcgRIIb; FcγIIB
T4 sequence: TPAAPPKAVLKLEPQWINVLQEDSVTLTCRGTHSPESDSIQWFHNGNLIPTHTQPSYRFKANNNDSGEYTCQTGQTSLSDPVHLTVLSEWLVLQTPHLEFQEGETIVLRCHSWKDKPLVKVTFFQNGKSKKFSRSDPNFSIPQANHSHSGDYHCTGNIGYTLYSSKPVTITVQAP

[5] = biological target: T5, human FcγRIIa(H) (human, UniProt P12318 36-217); assay: as above
T5 construct: also called hFcgRIIa(H); FcγRIIa type H
T5 sequence: T2 chain with R133H

[6] = biological target: T6, soluble human IL-6 receptor (human, UniProt P08887 20-357); assay: Biacore SPR, 3 uM CaCl2, pH 7.4, 37C, estimated from Req and Rmax
T6 construct: also called hsIL-6R
T6 sequence: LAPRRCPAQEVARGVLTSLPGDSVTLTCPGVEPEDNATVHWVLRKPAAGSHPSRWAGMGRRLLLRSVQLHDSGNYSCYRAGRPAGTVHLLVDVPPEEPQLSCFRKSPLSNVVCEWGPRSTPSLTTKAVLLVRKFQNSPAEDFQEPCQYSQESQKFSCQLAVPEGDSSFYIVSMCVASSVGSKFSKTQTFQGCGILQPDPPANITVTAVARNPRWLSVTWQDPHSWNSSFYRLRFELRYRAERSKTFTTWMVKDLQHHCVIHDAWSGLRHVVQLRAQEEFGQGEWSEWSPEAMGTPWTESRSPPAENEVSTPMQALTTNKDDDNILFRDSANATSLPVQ

[7] = biological target: T6, soluble human IL-6 receptor; assay: Biacore SPR, 3 uM CaCl2, pH 7.4, 37C, estimated
[8] = biological target: T7, human FcγRIa (human, UniProt P12314 16-292, limits assumed); assay: SPR, antibody captured by Protein A, FcγR analyte, 1:1 Langmuir fit
T7 construct: also called FcgRIa; hFcgRIa

[9] = biological target: T8, human FcγRIIa(R) (human, UniProt P12318 36-217); assay: as above
T8 construct: also called FcgRIIaR; hFcgRIIa(R)
T8 chain: T2 chain

[10] = biological target: T9, human FcγRIIb (human, UniProt P31994 43-217, limits assumed); assay: as above
T9 construct: also called FcgRIIb; hFcgRIIb
T9 sequence: T4 sequence

[11] = biological target: T10, human FcγRIIa(H) (human, UniProt P12318 36-217); assay: as above
T10 construct: also called FcgRIIaH; hFcgRIIa(H)
T10 sequence: T2 chain with R133H

[12] = biological target: T11, human FcγRIIb (human, UniProt P31994 43-217, limits assumed); assay: SPR (Biacore); KD for FcγRIIaR divided by KD for FcγRIIb of the same antibody
T11 construct: also called FcγIIB
T11 sequence: T4 sequence

[13] = biological target: T12, human FcγRIa (human, UniProt P12314 16-292, limits assumed); assay: SPR (Biacore), antibody captured, FcγR as analyte
T12 construct: also called CD64

[14] = biological target: T13, human FcγRIIa type H (human, UniProt P12318 36-217); assay: SPR (Biacore), antibody captured, FcγR as analyte
T13 construct: also called FcγRIIaH; FcγRIIa(H)
T13 sequence: T2 chain with R133H

[15] = biological target: T11, human FcγRIIb; assay: SPR (Biacore), antibody captured, FcγR as analyte
[16] = biological target: T14, human FcγRIIa type R (human, UniProt P12318 36-217); assay: SPR (Biacore), antibody captured, FcγR as analyte
T14 construct: also called FcγRIIaR; FcγRIIa(R)
T14 chain: T2 chain

[17] = biological target: T11, human FcγRIIb; assay: SPR (Biacore); KD for FcγRIIaH divided by KD for FcγRIIb of the same antibody
[18] = biological target: T11, human FcγRIIb; assay: SPR (Biacore); ratio against parent IL6R-F11/IL6R-L
[19] = biological target: T10, human FcγRIIa(H); assay: SPR, antibody captured by Protein A, FcγR analyte; * calculated with Equation 5
[20] = biological target: T7, human FcγRIa; assay: SPR
[21] = biological target: T8, human FcγRIIa(R); assay: SPR
[22] = biological target: T9, human FcγRIIb; assay: SPR
[23] = biological target: T10, human FcγRIIa(H); assay: SPR
[24] = biological target: T2, human FcγRIIa(R); assay: SPR, antibody captured on the chip, FcγR as analyte, HBS-EP+, 25 C; amount bound corrected for captured antibody
[25] = biological target: T3, human FcγRIa; assay: as above
[26] = biological target: T4, human FcγRIIb; assay: as above
[27] = biological target: T5, human FcγRIIa(H); assay: as above

T1 sequence (chain, as listed by the source limits assumed, chain 1 of 2): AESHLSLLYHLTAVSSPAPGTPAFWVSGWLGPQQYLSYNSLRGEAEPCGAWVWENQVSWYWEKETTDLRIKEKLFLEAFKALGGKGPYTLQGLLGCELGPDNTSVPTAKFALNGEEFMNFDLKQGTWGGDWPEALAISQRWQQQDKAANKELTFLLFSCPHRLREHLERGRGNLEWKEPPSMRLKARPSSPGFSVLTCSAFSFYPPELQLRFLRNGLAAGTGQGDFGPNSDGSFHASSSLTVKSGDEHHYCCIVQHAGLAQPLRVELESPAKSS
T1 sequence (P61769 21-119 limits assumed, chain 2 of 2): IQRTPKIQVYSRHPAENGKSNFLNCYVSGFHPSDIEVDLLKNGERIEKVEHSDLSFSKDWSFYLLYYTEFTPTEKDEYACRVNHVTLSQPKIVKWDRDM

B1: VH3/L(WT)-IgG1-F763 (antibody, name in EU numbering)
heavy: QVQLQESGPGLVKPSETLSLTCAVSGHSISHDHAWSWVRQPPGEGLEWIGFISYSGITNYNPSLQGRVTISRDNSKNTLYLQMNSLRAEDTAVYYCARSLARTTAMDYWGEGTLVTVSSASTKGPSVFPLAPSSKSTSGGTAALGCLVKDYFPEPVTVSWNSGALTSGVHTFPAVLQSSGLYSLSSVVTVPSSSLGTQTYICNVNHKPSNTKVDKKVEPKSCDKTHTCPPCPAPELRGGPKVFLFPPKPKDTLYISRTPEVTCVVVDVSHEDPEVKFNWYVDGVEVHEAKTKPREEQYNSTYRVVSVLQVLHADWLNGKEYKCKVSNKALPAPIEKTISKAKGQPREPQVYTLPPSRDELTKNQVSLTCLVKGFYPSDIAVEWESNGQPENNYKTTPPVLDSDGSFFLYSKLTVDKSRWQQGNVFSCSVMHEALHYHYTQKSLSLSP
light: not shown
notes: copies: 2 + 2
Kd [1]: 35 nM
BINDING AMOUNT (RU) [2]: -1 RU
BINDING AMOUNT (RU) [3]: -0.4 RU
BINDING AMOUNT (RU) [4]: -1 RU
BINDING AMOUNT (RU) [5]: -0.8 RU

B2: 6RL#9-IgG1 (antibody, V domains shown, not shown: a dimerising Fc or GST)
VH: QVQLVQSGAEVKKPGASVKVSCKASGYTFTSYYMHWVRQAPGQGLEWMGIINPSGGSTSYAQKFQGRVTMTRDTSTSTVYMELSSLRSEDTAVYYCARDDPGGGEYYFDYWGQGTLVTVSS
VL: QSVLTQPPSVSGAPGQRVTISCTGSRSNMGAGYDVHWYQLLPGAAPKLLISHNTHRPSGVPDRFSGSKSGASASLAITGLQAEDEADYYCQSHDSSLSAVVFGGGTKLTVLS
Kd [6]: ~31000 nM
Kd [7]: ≥ 31000 nM

B3: IL6R-G1d/IL6R-L (antibody, human IgG1)
heavy: not shown
light: DIQMTQSPSSLSASVGDRVTITCRASQDISSYLNWYQQKPGKAPKLLIYYTSRLHSGVPSRFSGSGSGTDFTFTISSLQPEDIATYYCQQGNTLPYTFGQGTKVEIK
notes: anti-human IL-6 receptor, G1d constant region; copies: 2 + 2
Kd [8]: 0.34 nM
Kd [9]: 1200 nM
Kd [10]: 5300 nM
Kd [11]: 770 nM

B4: IL6R-F11/IL6R-L (antibody, human IgG1)
heavy: not shown
light: B3 light
notes: IL6R-G1d with M252Y/N434Y (EU numbering)
KD(IIaR)/KD(IIb) [12]: 0.7
Kd [13]: 0.9 nM
Kd [14]: 5000 nM
Kd [15]: 6800 nM
Kd [16]: 5000 nM
KD(IIaH)/KD(IIb) [17]: 0.7
KD(IIb) of parent polypeptide/KD(IIb) of altered polypeptide [18]: 1

B5: IL6R-G1d_v1/IL6R-L (antibody, human IgG1)
heavy: not shown
light: B3 light
notes: P238D (EU numbering) in IL6R-G1d; also called IgG1-v1; copies: 2 + 2
Kd [8]: 7.3 nM
Kd [9]: 12000 nM
Kd [10]: 1100 nM
Kd [19]: 56000 nM
relative KD (KD of IgG1/KD of variant) [20]: 0.047 fold
relative KD (KD of IgG1/KD of variant) [21]: 0.1 fold
relative KD (KD of IgG1/KD of variant) [22]: 4.8 fold
relative KD (KD of IgG1/KD of variant) [23]: 0.014 fold

B6: IL6R-G1d_v3/IL6R-L (antibody, human IgG1)
heavy: not shown
light: B3 light
notes: S267E/L328F (EU numbering) in IL6R-G1d; also called IgG1-v3; copies: 2 + 2
Kd [8]: 0.19 nM
Kd [9]: 2.3 nM
Kd [10]: 13 nM
Kd [11]: 1500 nM
relative KD (KD of IgG1/KD of variant) [20]: 1.8 fold
relative KD (KD of IgG1/KD of variant) [21]: 522 fold
relative KD (KD of IgG1/KD of variant) [22]: 408 fold
relative KD (KD of IgG1/KD of variant) [23]: 0.51 fold

B7: IL6R-G1d_v2/IL6R-L (antibody, human IgG1)
heavy: not shown
light: B3 light
notes: L328E (EU numbering) in IL6R-G1d; also called IgG1-v2; copies: 2 + 2
Kd [8]: 0.46 nM
Kd [9]: 2900 nM
Kd [10]: 2300 nM
Kd [19]: 12000 nM
relative KD (KD of IgG1/KD of variant) [20]: 0.74 fold
relative KD (KD of IgG1/KD of variant) [21]: 0.41 fold
relative KD (KD of IgG1/KD of variant) [22]: 2.3 fold
relative KD (KD of IgG1/KD of variant) [23]: 0.064 fold

B8: GpH7-G1d/GpL16-k0 (antibody, human IgG1)
heavy: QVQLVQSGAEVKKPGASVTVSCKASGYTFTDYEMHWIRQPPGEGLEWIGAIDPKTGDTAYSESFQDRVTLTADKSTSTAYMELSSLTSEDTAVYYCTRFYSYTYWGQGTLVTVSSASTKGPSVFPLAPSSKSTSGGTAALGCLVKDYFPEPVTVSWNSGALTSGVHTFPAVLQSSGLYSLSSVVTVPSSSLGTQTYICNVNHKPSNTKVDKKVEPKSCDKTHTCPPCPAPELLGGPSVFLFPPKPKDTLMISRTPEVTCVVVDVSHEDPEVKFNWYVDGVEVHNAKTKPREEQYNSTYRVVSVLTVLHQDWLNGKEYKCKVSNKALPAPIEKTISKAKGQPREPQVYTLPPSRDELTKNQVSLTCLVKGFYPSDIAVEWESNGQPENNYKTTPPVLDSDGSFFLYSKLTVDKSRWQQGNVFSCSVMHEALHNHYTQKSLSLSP
light: DIVMTQSPLSLPVTPGEPASISCQASESLVHSNRNTYLHWYLQKPGQSPQLLIYKVSNRFSGVPDRFSGSGSGTDFTLKISRVEAEDVGVYYCSQNTHVPPTFGQGTKVEIE
notes: anti-glypican-3 antibody; G1d is IgG1 with Gly and Lys deleted from the C terminus; copies: 2 + 2
relative binding activity (GpH7-G1d/GpL16-k0 = 100) [24]: 100
relative binding activity (GpH7-G1d/GpL16-k0 = 100) [25]: 100
relative binding activity (GpH7-G1d/GpL16-k0 = 100) [26]: 100
relative binding activity (GpH7-G1d/GpL16-k0 = 100) [27]: 100

B9: GpH7-B3/GpL16-k0 (antibody, human IgG1)
heavy: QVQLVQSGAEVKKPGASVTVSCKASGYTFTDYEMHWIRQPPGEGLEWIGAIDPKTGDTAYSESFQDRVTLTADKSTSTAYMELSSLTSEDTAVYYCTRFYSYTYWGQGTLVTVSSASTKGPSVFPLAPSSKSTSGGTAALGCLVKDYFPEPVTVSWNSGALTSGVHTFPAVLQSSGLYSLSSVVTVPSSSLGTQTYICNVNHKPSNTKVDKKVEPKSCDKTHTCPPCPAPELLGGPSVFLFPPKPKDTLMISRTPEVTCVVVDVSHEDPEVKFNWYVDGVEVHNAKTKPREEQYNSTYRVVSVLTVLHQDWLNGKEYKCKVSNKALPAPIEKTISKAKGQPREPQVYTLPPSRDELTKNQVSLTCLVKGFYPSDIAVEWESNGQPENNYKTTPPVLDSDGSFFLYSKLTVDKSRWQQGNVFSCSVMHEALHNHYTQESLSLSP
light: B8 light
notes: anti-glypican-3 antibody, constant region G1d with K439E; copies: 2 + 2
relative binding activity (GpH7-G1d/GpL16-k0 = 100) [24]: 94
relative binding activity (GpH7-G1d/GpL16-k0 = 100) [25]: 109
relative binding activity (GpH7-G1d/GpL16-k0 = 100) [26]: 88
relative binding activity (GpH7-G1d/GpL16-k0 = 100) [27]: 92

B10: FH4-IgG1 (antibody, V domains shown)
VH: QVQLVQSGAEVKKPGSSVKVSCKASGGTFSSYAISWVRQAPGQGLEWMGGIIPIFGTANYAQKFQGRVTITADESTSTAYMELSSLRSEDTAVYYCARERDYYDSSGYYDAFDIWGQGTMVTVSS
VL: ETTVTQSPSFLSASVGDRVTITCITTTDIDDDMNWFQQEPGKAPKLLISEGNILRPGVPSRFSSSGYGTDFTLTISKLQPEDFATYYCLQSDNLPFTFGQGTKLEIKR
Kd [6]: ~34000 nM
Kd [7]: ≥ 34000 nM
